Experiments:
BRCA1 [1] = biological target: T1, BRCA1 (Homo sapiens, UniProt P38398 1-1863); assay: EMSA; 1 mM EDTA; 10 nM substrate; 25 mM Tris-HCl pH 7.5, 90 mM KCl, 1 mM EDTA, 1 mM DTT, 0.1 mg/ml BSA, RNaseOUT; 37 C 30 min; 10 nM substrate (competition: 1 nM, 10 + 10 min); 6% native PAGE at 4 C; settings: protein: recombinant; tags: C-terminal 10xHis; N-terminal 2xMBP cleaved off with PreScission; blunt
BRCA1;BARD1 [2] = biological target: T2, BRCA1;BARD1 (Homo sapiens;Homo sapiens, UniProt P38398;Q99728 1-1863;1-777, |); assay: EMSA; 1 mM EDTA; 10 nM substrate; resistant to increasing salt (Supplementary Fig. 5a); 25 mM Tris-HCl pH 7.5, 90 mM KCl, 1 mM EDTA, 1 mM DTT, 0.1 mg/ml BSA, RNaseOUT; 37 C 30 min; 10 nM substrate (competition: 1 nM, 10 + 10 min); 6% native PAGE at 4 C; settings: protein: recombinant;recombinant; tags: C-terminal 10xHis; N-terminal 2xMBP cleaved off with PreScission;; copies: 1;1; blunt
BRCA1 [3] = biological target: T1, BRCA1; assay: EMSA; 1 mM EDTA; 10 nM substrate; affinity comparable to dsDNA; 25 mM Tris-HCl pH 7.5, 90 mM KCl, 1 mM EDTA, 1 mM DTT, 0.1 mg/ml BSA, RNaseOUT; 37 C 30 min; 10 nM substrate (competition: 1 nM, 10 + 10 min); 6% native PAGE at 4 C; settings: protein: recombinant; tags: C-terminal 10xHis; N-terminal 2xMBP cleaved off with PreScission; blunt
BRCA1;BARD1 [4] = biological target: T2, BRCA1;BARD1; assay: EMSA; 1 mM EDTA; 10 nM substrate; affinity comparable to dsDNA; resistant to increasing salt (Supplementary Fig. 5a); 25 mM Tris-HCl pH 7.5, 90 mM KCl, 1 mM EDTA, 1 mM DTT, 0.1 mg/ml BSA, RNaseOUT; 37 C 30 min; 10 nM substrate (competition: 1 nM, 10 + 10 min); 6% native PAGE at 4 C; settings: protein: recombinant;recombinant; tags: C-terminal 10xHis; N-terminal 2xMBP cleaved off with PreScission;; copies: 1;1; blunt

Binder	binding result (BRCA1 [1])	binding result (BRCA1;BARD1 [2])	binding result (BRCA1 [3])	binding result (BRCA1;BARD1 [4])
X12-3/X12-4C dsDNA 50 bp (dsDNA) DNA 1: GACGTCATAGACGATTACATTGCTAGGACATGCTGTCTAGAGACTATCGC DNA 2: GCGATAGTCTCTAGACAGCATGTCCTAGCAATGTAATCGTCTATGACGTC	binds	binds		
X12-3 DNA/X12-4C RNA hybrid 50 bp (DNA:RNA, second strand RNA) DNA: GACGTCATAGACGATTACATTGCTAGGACATGCTGTCTAGAGACTATCGC RNA: GCGAUAGUCUCUAGACAGCAUGUCCUAGCAAUGUAAUCGUCUAUGACGUC			binds	binds
